According to patent US12491259B2, “Anti-variable MUC1* antibodies and uses thereof” (Minerva Biotechnologies Corporation, priority 2022, dated 2025):

Tested on: high antigen (MUC1*) expressing cancer cells
Assay: PrestoBlue plate reader killing assays over multiple cancer sub-types (FIGS. 38A-45D)
Format: cell-based
Settings: breast (T47D-MUC1*) and pancreatic (HPAF II-MUC1*) cancer cells
Experimental: Therefore, although seldom done, it is critically important to test anti-cancer therapeutics against both the low antigen expressing early cancer cells and the later cancer cells that express high levels of the targeted antigen. In FIGS. 38A-45D, the ability of MNC2-ADCs and MN20A10-ADCs to kill multiple cancer sub-types was tested, where the tumors were either low-medium antigen expressing cancer cells or high antigen expressing cancer cells. […] The low expressing cancer cells were killed by treatment with either MNC2-ADC or MN20A10-ADC in the high nanomolar range of ADC, which is considered druggable. The cancer cells that expressed high levels of MUC1* were killed with IC50s in the single digit nanomolar range. […]
Another method of measuring the killing activity of mAb MNC2-ADCs and mAb MN20A10-ADCs against target cancer cells including T47D breast cancer cells NCI-H1975 non-small cell lung cancer cells and HPAFII pancreatic cancer cells is to use the PrestoBlue live/dead cell assay (ThermoFisher). […] After 72 hour-120 hour incubation in a 37° C./5% CO2 incubator, cell viability was measure by fluorescence using the PrestoBlue HS assay (ThermoFisher). […] Fluorescence (Ex 560 nm/Em 590 nm) was recorded after 30-90 min. incubation using a Tecan plate reader. Percentage viability was determined by PrestoBlue HS staining and normalized to 1 μM taxol treated cells. […]

B1: MNC2-MMAF (conjugate)
VH: EVQLVESGGGLVKPGGSLRLSCAASGFTFSGYAMSWVRQAPGKGLEWVSTISSGGTYIYYPDSVKGRFTISRDNAKNSLYLQMNSLRAEDTAVYYCARLGGDNYYEYFDVWGKGTTVTVSS
VL: DIVLTQSPASLAVSPGQRATITCRASKSVSTSGYSYMHWYQQKPGQPPKLLIYLASNLESGVPARFSGSGSGTDFTLTINPVEANDTANYYCQHSRELPFTFGGGTKVEIKRT
concentrations at which cells engineered to express more MUC1* were killed: very low nanomolar concentrations

B2: MN20A10-MMAF (conjugate)
VH: QVQLVESGGGLVKPGGSLRLSCAASGFTFSTYAMSWIRQAPGKGLEWVASIGRAGSTYYSDSVKGRFTISRDNAKNSLYLQMNSLRAEDTAVYYCARGPIYNDYDEFAYWGQGTLVTVSS
VL: EIVLTQSPATLSLSPGERATLSCKSSQSVLYSSNQKNYLAWYQQKPGQAPRLLIYWASTRESGIPARFSGSGSGTDFTLTISSLEPEDFAVYYCHQYLSSLTFGGGTKVEIKR
concentrations at which cells engineered to express more MUC1* were killed: very low nanomolar concentrations
